Substitutions are numbered along the chain they refer to.
B1: CT120 antibody (antibody, V domains shown)
VH: QVQLVQSGAEVKMPGSSVKVSCKTSGVFFSSHAISWVRQAPGQGLEWMGGISPMFGTTHYAQKFQGRVTITADQSTTTAYMELTSLTSEDTAVYYCARDGAGSYYPLNWFDPWGQGTLVTVSS
VL: EIVLTQSPATLSLSPGERATLSCRASENIWNNLAWYQQKPGQAPRLLISGASTGATGVPSRFRGSGSRTEFTLTISSLQSEDFAIYFCQQYNSWPRTFGPGTKVEIKR
B2: CT104 antibody (antibody, V domains shown)
VH: QVQLVQSGAEVKKPGSSVKVSCKASGGTLNNYAISWVRQAPGQGLEWMGGISPIFGTLNYAERFQGRVTITADVFTNTVYMELSSLRSEDTAVYFCARGCGYNCYYFDGWGQGTLVTVSS
VL: EIVLTQSPGTLSLSPGERATLSCRASQSLSSSSLVWYQQKPGQAPRLLIYGASSRATGIPDRFSGSGSGTDFTLTISRLEPEDFAVYYCQQYGNSPYTFGQGTQVEIKR
B3: CT123 antibody (antibody, V domains shown)
VH: QVQLVESGGGVVQPGRSLRLSCAASGFTFSRFGIHWVRQAPGKGLEWMAVIWYDGSNKFYADSVKGRFTISRDNSKNTVYLQMNSLRAEDTAVYYCAKDSRGYCSSIICFEGGLDNWGQGTLVTVSS
VL: B2 VL with I2T, L29V, S31I, S33Y, V35A, Q39R, S54R, N94S, Q104K, V105L

Each binder was assayed against T1, HA of influenza A virus H1N1 A/Texas/05/2009-RG15 (pandemic), on virus (influenza A virus H1N1 …) (assay: cell-based or functional assay).

Row | Binder | MN assay: lowest antibody concentration at which no virus antigen was detected
1 | B1 | 0.313 µg/mL
2 | B2 | 0.313 µg/mL
3 | B3 | 0.313 µg/mL

What follows are binders tested against T2, HA of influenza A virus H1N1 A/New York/18/2009-RG18 (pandemic), on virus (influenza A virus H1N1 (A/New …)) (assay: cell-based or functional assay).

Row | Binder | MN assay: lowest antibody concentration at which no virus antigen was detected
4 | B1 | 0.313 µg/mL
5 | B2 | 0.625 µg/mL
6 | B3 | 0.625 µg/mL

The binders below were run against HA of influenza A virus H1N1 A/Solomon Islands/3/2006 (seasonal), on virus (influenza A virus H1N1 (A/Solomon …)) (assay: cell-based or functional assay).

Row | Binder | MN assay: lowest antibody concentration at which no virus antigen was detected
7 | B1 | 0.625 µg/mL
8 | B2 | 0.625 µg/mL
9 | B3 | 1.25 µg/mL

The binders below were run against HA of influenza A virus H1N1 A/Ohio/83 (seasonal), on virus (influenza A virus H1N1 (A/Ohio/83)) (assay: cell-based or functional assay).

Row | Binder | MN assay: lowest antibody concentration at which no virus antigen was detected
10 | B1 | 0.156 µg/mL
11 | B2 | 0.313 µg/mL
12 | B3 | 0.313 µg/mL

These binders were tested against HA of influenza A virus H2N2 A/Ann Arbor/6/60 ca, on virus (influenza A virus H2N2 (A/Ann …)) (assay: cell-based or functional assay).

Row | Binder | MN assay: lowest antibody concentration at which no virus antigen was detected
13 | B1 | 2.5 µg/mL
14 | B2 | > 10 µg/mL
15 | B3 | > 10 µg/mL

The binders below were run against HA of influenza A virus H5N1 A/Vietnam/1203/04, on virus (influenza A virus H5N1 …) (assay: cell-based or functional assay).

Row | Binder | MN assay: lowest antibody concentration at which no virus antigen was detected
16 | B1 | 1.25 µg/mL
17 | B2 | 1.25 µg/mL
18 | B3 | > 10 µg/mL

Each binder was assayed against HA of influenza A virus H5N1 A/Anhui/1/05, on virus (influenza A virus H5N1 (A/Anhui/1/05)) (assay: cell-based or functional assay).

Row | Binder | MN assay: lowest antibody concentration at which no virus antigen was detected
19 | B1 | 0.625 µg/mL
20 | B2 | 0.625 µg/mL
21 | B3 | > 10 µg/mL

Each binder was assayed against HA of influenza A virus H3N2 A/Wisconsin/67/2005, on virus (influenza A virus H3N2 …) (assay: cell-based or functional assay).

Row | Binder | MN assay: lowest antibody concentration at which no virus antigen was detected
22 | B1 | > 10 µg/mL
23 | B2 | > 10 µg/mL
24 | B3 | > 10 µg/mL

Target: T1, HA of influenza A virus H1N1 …
Experiment: cell-based or functional assay
Remark: another data set of the same source

Row | Binder | Antibody concentration* (neutralizing antibody concentration) | IC50 of neutralizing activity
25 | B1 | 0.156 µg/mL | 0.15 µg/mL
26 | B2 | 0.313 µg/mL | 0.29 µg/mL
27 | B3 | 0.625 µg/mL | 0.068 µg/mL

Target: T2, HA of influenza A virus H1N1 A/New …
Experiment: cell-based or functional assay
Remark: another data set of the same source

Row | Binder | Antibody concentration* (neutralizing antibody concentration) | IC50 of neutralizing activity
28 | B1 | 0.313 µg/mL | 0.31 µg/mL
29 | B2 | 1.25 µg/mL | 0.56 µg/mL
30 | B3 | 1.25 µg/mL | 0.29 µg/mL

Target: T1, HA of influenza A virus H1N1 …
Experiment: cell-based or functional assay
Remark: another data set of the same source

Row | Binder | Hemagglutination-inhibition test: hemagglutination inhibition end point
31 | B1 | > 20 µg/mL
32 | B2 | > 20 µg/mL
33 | B3 | > 20 µg/mL

Target: T2, HA of influenza A virus H1N1 A/New …
Experiment: cell-based or functional assay
Remark: another data set of the same source

Row | Binder | Hemagglutination-inhibition test: hemagglutination inhibition end point
34 | B1 | > 20 µg/mL
35 | B2 | > 20 µg/mL
36 | B3 | > 20 µg/mL

Reference: patent US20130004505A1 (CELLTRION, published 2013)
